According to patent US20230285583A1, “LIQUID FORMULATION OF LONG-ACTING CONJUGATE OF GLUCAGON, GLP-1, AND GIP TRIGONAL AGONIST” (HANMI PHARM, CO., LTD., priority 2020, published 2023):
Bridge positions count the residues as written; N and C are the ends. Square brackets hold non-standard residues; d marks the D form. Ends that are not written are not given here. * marks the point of attachment. Acetyl(2-(4-imidazolyl)) = O=C(Cc1c[nH]cn1)*; Aib = CC(C)(N)C(=O)O

What was measured:
Experiment in all cases: cell-based or functional assay
[1] = molecular target: human GCG receptor (human, UniProt P47871 26-477)
Chain of human GCG receptor (P47871 26-477): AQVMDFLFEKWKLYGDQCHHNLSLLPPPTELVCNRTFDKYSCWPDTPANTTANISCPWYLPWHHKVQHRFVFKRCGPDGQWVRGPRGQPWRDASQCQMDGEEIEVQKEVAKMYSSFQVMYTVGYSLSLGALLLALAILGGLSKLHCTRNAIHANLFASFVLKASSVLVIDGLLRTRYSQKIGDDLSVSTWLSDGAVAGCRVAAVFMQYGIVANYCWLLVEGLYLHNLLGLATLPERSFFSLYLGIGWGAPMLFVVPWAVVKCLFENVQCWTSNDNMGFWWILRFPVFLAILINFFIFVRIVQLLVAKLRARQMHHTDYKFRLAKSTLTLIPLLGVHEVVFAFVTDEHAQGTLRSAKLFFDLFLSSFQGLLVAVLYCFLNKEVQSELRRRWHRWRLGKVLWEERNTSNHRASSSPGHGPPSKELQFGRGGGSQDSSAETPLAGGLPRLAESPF

[2] = molecular target: T1, human GIP receptor (human, UniProt P48546 22-466)
T1 sequence (looked up): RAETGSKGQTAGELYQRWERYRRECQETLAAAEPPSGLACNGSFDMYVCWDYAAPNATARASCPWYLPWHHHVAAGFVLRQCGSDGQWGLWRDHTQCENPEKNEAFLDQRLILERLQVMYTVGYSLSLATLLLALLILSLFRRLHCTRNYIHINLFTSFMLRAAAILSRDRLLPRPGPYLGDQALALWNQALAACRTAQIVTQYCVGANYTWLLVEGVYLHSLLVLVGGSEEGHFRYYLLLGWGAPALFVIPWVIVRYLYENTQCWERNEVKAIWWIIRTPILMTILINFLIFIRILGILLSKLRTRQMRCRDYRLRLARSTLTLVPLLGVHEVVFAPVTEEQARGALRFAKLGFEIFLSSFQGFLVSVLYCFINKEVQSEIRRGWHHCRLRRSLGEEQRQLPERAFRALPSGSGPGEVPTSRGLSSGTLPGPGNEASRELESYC

[3] = molecular target: human GLP-1 receptor (human, UniProt P43220 24-463)

Binder | In Vitro Activity Compared to Native Peptide (%) vs. Glucagon (relative titer from cAMP EC50) [1] | In Vitro Activity Compared to Native Peptide (%) vs. GIP (relative titer from cAMP EC50) [2] | In Vitro Activity Compared to Native Peptide (%) vs. GLP-1 (relative titer from cAMP EC50) [3]
H[Aib]QGTFTSDYSKCLDEKRAKEFVQWLLDHHPSSGQPPPS (bridge 16-20; not fully specified (bridges)) [trigonal agonist of SEQ ID NO: 20] | 25.2% | 11.6% | 95.4%
H[Aib]QGTFTSDYSKYLDEKAQKEFVQWLLDTC (bridge 16-20; not fully specified (bridges)) [trigonal agonist of SEQ ID NO: 3] | 0.7% | 0.8% | 142%
H[Aib]QGTFTSDYSKYLDEKRQKEFVQWLLDTKC (bridge 16-20; not fully specified (bridges)) [trigonal agonist of SEQ ID NO: 33] | 14% | 0.12% | 51%
Y[Aib]QGTFTSDYSKYLDEKAAKDFVQWLLDHHPSSGQPPPSC (bridge 16-20; not fully specified (bridges)) [trigonal agonist of SEQ ID NO: 32] | 12.2% | 35.5% | 38.7%
H[Aib]QGTFTSDYSKYLDEKRQKEFVQWLLNTKC (bridge 16-20; not fully specified (bridges)) [trigonal agonist of SEQ ID NO: 18] | 2.6% | 0.2% | 39.1%
H[Aib]QGTFTSDYSKYLDEKRQKEFVNWLLAQC (bridge 16-20; not fully specified (bridges)) [trigonal agonist of SEQ ID NO: 17] | 4.9% | 0.8% | 57.9%
Y[Aib]QGTFTSDYSKCLDEKRAKDFVQWLLDHHPSSGQPPPS (bridge 16-20; not fully specified (bridges); ends not checked) [trigonal agonist of SEQ ID NO: 25] | 71.3% | 64.4% | 15.1%
Y[Aib]QGTFTSDYSKYLDEKRAKDFVQWLLDHHPSSGQPPPSC (bridge 16-20; not fully specified (bridges)) [trigonal agonist of SEQ ID NO: 31] | 47.6% | 11.7% | 10.3%
H[Aib]EGTFTSDYSIAMDEIHQKDFVDWLLAEC (bridge 16-20; not fully specified (bridges)) [trigonal agonist of SEQ ID NO: 15] | 1.4% | 0.1% | 30.6%
Y[Aib]QGTFTSDYSKCLDERAAKEFVQWLLDHHPSSGQPPPS (bridge 16-20; not fully specified (bridges)) [trigonal agonist of SEQ ID NO: 24] | 9.6% | 62.8% | 24.3%
Y[Aib]QGTFTSDYSKYLDEKAAKEFVQWLLDHHPSSGQPPPSC (bridge 16-20; not fully specified (bridges)) [trigonal agonist of SEQ ID NO: 30] | 8.5% | 18% | 35.1%
[Acetyl(2-(4-imidazolyl))][Aib]QGTFTSDYSKCLDEKRAKEFVQWLLDHHPSSGQPPPS (bridge 16-20; not fully specified (bridges)) [trigonal agonist of SEQ ID NO: 29] | 0.9% | 1% | 12.9%
Y[Aib]QGTFTSDYSKYLDERACKDFVQWLLDHHPSSGQPPPS (bridge 16-20; not fully specified (bridges); ends not checked) [trigonal agonist of SEQ ID NO: 26] | 12.7% | 94.7% | 90.1%
Y[Aib]QGTFTSDYSKYLDECAAKDFVQWLLDHHPSSGQPPPS (bridge 16-20; not fully specified (bridges)) [trigonal agonist of SEQ ID NO: 22] | 46.2% | 39.8% | 28.5%
H[Aib]QGTFTSDYSKYLDEKRQKEFVQWLLDTC (bridge 16-20; not fully specified (bridges)) [trigonal agonist of SEQ ID NO: 13] | 7.5% | 0.3% | 44.1%
Y[Aib]QGTFTSDYSKYLDECRAKDFVQWLLDHHPSSGQPPPS (bridge 16-20; not fully specified (bridges)) [trigonal agonist of SEQ ID NO: 21] | 172% | 17.2% | 15.8%
H[Aib]QGTFTSDYSIAMDEIHQKDFVNWLLAQC (lactam 16-20) [trigonal agonist of SEQ ID NO: 16] | 0.7% | 2.4% | 27.1%
Y[Aib]QGTFTSDYSKCLDEKAAKEFVQWLLDHHPSSGQPPPS (bridge 16-20; not fully specified (bridges)) [trigonal agonist of SEQ ID NO: 23] | 8.8% | 107% | 27.9%
Y[Aib]QGTFTSDCSKYLDERAAKDFVQWLLDHHPSSGQPPPS (bridge 16-20; not fully specified (bridges); ends not checked) [trigonal agonist of SEQ ID NO: 27] | 1% | 1.6% | 11.5%
H[Aib]EGTFTSDYSIAMDEIHQKDFVNWLLAQC (lactam 16-20) [trigonal agonist of SEQ ID NO: 14] | 8.4% | 1.3% | 161%
Y[Aib]QGTFTSDYSKCLDEKRAKEFVQWLLDHHPSSGQPPPS (bridge 16-20; not fully specified (bridges)) [trigonal agonist of SEQ ID NO: 2] | 140% | 59.7% | 20.1%
Y[Aib]QGTFTSDYSKYLDECAAKEFVQWLLDHHPSSGQPPPS (bridge 16-20; not fully specified (bridges)) [trigonal agonist of SEQ ID NO: 19] | 60.1% | 92.9% | 64.6%
[Acetyl(2-(4-imidazolyl))][Aib]QGTFTSDYSKYLDECRAKEFVQWLLDHHPSSGQPPPS (bridge 16-20; not fully specified (bridges)) [trigonal agonist of SEQ ID NO: 28] | 5.4% | 3% | 22.6%
